Test results from PMC4839733.

Target: SP-VSVG-hGLP-1RΔN23-GFP V36A (human) (UniProt P43220)
Chain of UniProt P43220 (P43220 24-463 V36A): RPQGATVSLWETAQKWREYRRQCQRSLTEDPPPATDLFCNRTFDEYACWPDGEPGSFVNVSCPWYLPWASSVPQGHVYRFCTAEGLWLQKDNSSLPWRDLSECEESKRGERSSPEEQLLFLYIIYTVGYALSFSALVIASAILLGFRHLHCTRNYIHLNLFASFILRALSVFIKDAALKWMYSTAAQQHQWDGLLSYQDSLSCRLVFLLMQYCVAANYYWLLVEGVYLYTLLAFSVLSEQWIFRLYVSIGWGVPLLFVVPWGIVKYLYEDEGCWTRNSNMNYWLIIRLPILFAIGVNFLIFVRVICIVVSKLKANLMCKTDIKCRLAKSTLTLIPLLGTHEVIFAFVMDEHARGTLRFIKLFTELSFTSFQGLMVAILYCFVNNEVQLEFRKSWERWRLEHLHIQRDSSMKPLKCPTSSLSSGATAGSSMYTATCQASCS

agonist induced internalisation of hGLP-1R V36A (cell-surface ELISA with the anti-GLP-1R antibody, HEK293 cells): 12.4%
Substance: GLP-1 7–37 (liraglutide) (peptide)
